Read-outs that look alike come from different tables or passages of the source. Bridges are numbered along the chain shown (N, C = ends). Where no end group is shown, it is not given here. [ ]: non-standard residue; d: D form. Ava = NCCCCC(=O)O
Key:
[1] = target: T1, human MCH receptor expressed from the open reading frame cDNA SEQ. ID. NO. 1 in 293-AEQ17 cells (human, UniProt Q99705 1-353); assay: cell-based or functional assay
[2] = target: human MCH receptor (membranes from a stable CHO or HEK-293 cell line) (human) (UniProt Q99705); assay: competition vs [125I]-human MCH (Phe13,Tyr19); human MCH receptor cell membranes (Example 3)
human MCH receptor (membranes from a stable CHO or HEK-293 cell line) (human), sequence (Q99705 whole entry): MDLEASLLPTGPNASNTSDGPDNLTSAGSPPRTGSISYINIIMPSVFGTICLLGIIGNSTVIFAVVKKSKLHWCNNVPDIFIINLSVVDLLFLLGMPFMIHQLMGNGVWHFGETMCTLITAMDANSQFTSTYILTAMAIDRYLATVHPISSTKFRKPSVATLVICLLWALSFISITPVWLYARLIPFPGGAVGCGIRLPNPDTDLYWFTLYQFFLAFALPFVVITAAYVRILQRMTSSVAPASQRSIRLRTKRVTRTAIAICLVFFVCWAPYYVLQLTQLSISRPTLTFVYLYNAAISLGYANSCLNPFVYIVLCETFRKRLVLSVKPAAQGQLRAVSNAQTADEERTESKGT

[3] = target: T1, human MCH receptor expressed from the …; assay: cell-based or functional assay; remark: listed apart in the source
[4] = target: T1, human MCH receptor expressed from the …; assay: cell-based or functional assay; remark: listed apart in the source
[5] = target: T1, human MCH receptor expressed from the …; assay: cell-based or functional assay; remark: listed apart in the source
[6] = target: T1, human MCH receptor expressed from the …; assay: cell-based or functional assay; remark: listed apart in the source
[7] = target: T1, human MCH receptor expressed from the …; assay: cell-based or functional assay; remark: listed apart in the source
[8] = target: T1, human MCH receptor expressed from the …; assay: cell-based or functional assay; remark: listed apart in the source
[9] = target: T2, human MCH receptor (membranes from a stable CHO or HEK-293 cell line) (human, UniProt Q99705 1-353); assay: SPA competition vs [125I]-human MCH (Phe13,Tyr19); human MCH receptor cell membranes
T2 construct: whole, on cells; also called cloned human MCH receptor (CHO clone)
T2 sequence (Q99705 whole entry): as above

[10] = target: T2, human MCH receptor (membranes from a …); assay: competition vs [125I]-human MCH (Phe13,Tyr19); human MCH receptor cell membranes (Example 3)
[11] = target: T2, human MCH receptor (membranes from a …); assay: as above; remark: listed apart in the source
[12] = target: T2, human MCH receptor (membranes from a …); assay: as above; remark: listed apart in the source
[13] = target: T2, human MCH receptor (membranes from a …); assay: as above; remark: listed apart in the source
[14] = target: T2, human MCH receptor (membranes from a …); assay: as above; remark: listed apart in the source
[15] = target: T2, human MCH receptor (membranes from a …); assay: as above; remark: listed apart in the source
[16] = target: T2, human MCH receptor (membranes from a …); assay: competition vs [125I]-human MCH (Phe13,Tyr19); human MCH receptor cell membranes (Example 3); unit of the concentration '1' not given
[17] = target: T2, human MCH receptor (membranes from a …); assay: as above; remark: listed apart in the source

T1 sequence (Q99705 whole entry): as above

B1: MCH analog SEQ. ID. NO. 76 (Ava^9,10,Ava^14,15) (peptide)
peptide: Ac-RCM[Ava][Ava]RVY[Ava][Ava]C-NH2
modifications: disulfide 2-11; not fully specified
Activation % [1]: 3% | EC50 [1]: > 10000 nM | IC50 [2]: 50 nM

B2: truncated MCH analog SEQ. ID. NO. 7: Ac-Arg-Cys-Met-Leu-Gly-Arg-Val-Tyr-Arg-Pro-Cys-amide (peptide)
peptide: Ac-RCMLGRVYRPC-NH2
modifications: disulfide 2-11 (inferred)
notes: Corresponds to MCH positions 6-16; also called ID; NO; 7 MCH analog
% Activation at 10 µM [3]: 123% | EC50 [3]: 18 nM | Activation % [4]: 99% | EC50 [4]: 20 nM | Activation % [5]: 99% | EC50 [5]: 20 nM | Activation % [6]: 99% | EC50 [6]: 20 nM | Activation % [7]: 99% | EC50 [7]: 20 nM | Activation % [8]: 99% | EC50 [8]: 20 nM | Activation % [1]: 99% | EC50 [1]: 20 nM | IC50 [9]: 0.12 nM | IC50 [10]: 0.5 nM | IC50 [11]: 1.4 nM | IC50 [12]: 1.4 nM | IC50 [13]: 0.5 nM | IC50 [14]: 1.4 nM | IC50 [15]: 1.4 nM

B3: MCH analog SEQ. ID. NO. 62 (position 13: Phe) (peptide)
peptide: Ac-RCMLGRVFRPC-NH2
modifications: disulfide 2-11
SMILES: CSCC[C@@H]1NC(=O)[C@@H](NC(=O)[C@H](CCCNC(=N)N)NC(C)=O)CSSC[C@@H](C(N)=O)NC(=O)[C@@H]2CCCN2C(=O)[C@H](CCCNC(=N)N)NC(=O)[C@H](Cc2ccccc2)NC(=O)[C@H](C(C)C)NC(=O)[C@H](CCCNC(=N)N)NC(=O)CNC(=O)[C@H](CC(C)C)NC1=O
notes: ID; NO; 7 peptide; MCH position numbering
Activation % [8]: 96% | EC50 [8]: 46 nM | IC50 [14]: 1 nM

B4: MCH analog SEQ. ID. NO. 63 (position 13: Trp) (peptide)
peptide: Ac-RCMLGRVWRPC-NH2
modifications: disulfide 2-11
SMILES: CSCC[C@@H]1NC(=O)[C@@H](NC(=O)[C@H](CCCNC(=N)N)NC(C)=O)CSSC[C@@H](C(N)=O)NC(=O)[C@@H]2CCCN2C(=O)[C@H](CCCNC(=N)N)NC(=O)[C@H](Cc2c[nH]c3ccccc23)NC(=O)[C@H](C(C)C)NC(=O)[C@H](CCCNC(=N)N)NC(=O)CNC(=O)[C@H](CC(C)C)NC1=O
notes: as for B3
Activation % [8]: 83% | EC50 [8]: 890 nM | IC50 [14]: 3.8 nM

B5: MCH analog SEQ. ID. NO. 64 (position 13: His) (peptide)
peptide: Ac-RCMLGRVHRPC-NH2
modifications: disulfide 2-11
SMILES: CSCC[C@@H]1NC(=O)[C@@H](NC(=O)[C@H](CCCNC(=N)N)NC(C)=O)CSSC[C@@H](C(N)=O)NC(=O)[C@@H]2CCCN2C(=O)[C@H](CCCNC(=N)N)NC(=O)[C@H](Cc2c[nH]cn2)NC(=O)[C@H](C(C)C)NC(=O)[C@H](CCCNC(=N)N)NC(=O)CNC(=O)[C@H](CC(C)C)NC1=O
notes: as for B3
Activation % [8]: 66% | EC50 [8]: 3400 nM | IC50 [14]: 13.1 nM

B6: MCH analog SEQ. ID. NO. 58 (position 10: D-Glu) (peptide)
peptide: RCMLXRVYRPC
modifications: D-Glu at position 10; N-terminal acetyl, C-terminal amide, Cys-Cys disulfide as in SEQ. ID. NO. 7
notes: as for B3
EC50 [7]: > 10000 nM | % @ 1 (in the IC50 column) [16]: 40%

B7: MCH analog SEQ. ID. NO. 70 (Ava^9,10) (peptide)
peptide: Ac-RCM[Ava][Ava]RVYRPC-NH2
modifications: disulfide 2-11; not fully specified
notes: as for B3
Activation % [1]: 82% | IC50 [15]: 3.7 nM

B8: MCH analog SEQ. ID. NO. 71 (D-Arg^6,Ava^9,10) (peptide)
peptide: Ac-[dR]CM[Ava][Ava]RVYRPC-NH2
modifications: disulfide 2-11; not fully specified
notes: as for B3
Activation % [1]: 72% | IC50 [15]: 3.7 nM

B9: MCH analog SEQ. ID. NO. 72 (Ava^14,15) (peptide)
peptide: Ac-RCMLGRVY[Ava][Ava]C-NH2
modifications: disulfide 2-11
notes: as for B3
Activation % [1]: 75% | EC50 [1]: 406 nM | IC50 [15]: 6.2 nM

B10: MCH analog SEQ. ID. NO. 74 (D-Pro^10,Ava^14,15) (peptide)
peptide: RCMLXRVYXXC
modifications: not fully specified; D-Pro^10; Ava (5-aminopentanoic acid) in place of positions 14,15; N-terminal acetyl, C-terminal amide, Cys-Cys disulfide as in SEQ. ID. NO. 7
notes: as for B3
Activation % [1]: 3% | IC50 [15]: 700 nM

B11: MCH analog SEQ. ID. NO. 77 (Nle^8) (peptide)
peptide: RCXLGRVYRPC
modifications: norleucine at position 8; N-terminal acetyl, C-terminal amide, Cys-Cys disulfide as in SEQ. ID. NO. 7
notes: as for B3
Activation % [1]: 105% | IC50 [15]: 0.5 nM

B12: MCH analog SEQ. ID. NO. 15 (D-Arg^6) (peptide)
peptide: XCMLGRVYRPC
modifications: D-Arg^6; N-terminal acetyl, C-terminal amide, Cys-Cys disulfide as in SEQ. ID. NO. 7
notes: as for B3
Activation % [4]: 86% | EC50 [4]: 45 nM | IC50 [10]: 0.46 nM

B13: MCH analog SEQ. ID. NO. 25 (N-Me-Nle^8) (peptide)
peptide: RCXLGRVYRPC
modifications: N-methyl-norleucine at position 8; N-terminal acetyl, C-terminal amide, Cys-Cys disulfide as in SEQ. ID. NO. 7
notes: as for B3
Activation % [5]: 110% | EC50 [5]: 20 nM | IC50 [11]: 0.16 nM

B14: MCH analog SEQ. ID. NO. 26 (N-Me-Leu^9) (peptide)
peptide: RCMXGRVYRPC
modifications: N-methyl-leucine at position 9; N-terminal acetyl, C-terminal amide, Cys-Cys disulfide as in SEQ. ID. NO. 7
notes: as for B3
Activation % [5]: 3% | EC50 [5]: > 10000 nM | % @ 1 (in the IC50 column) [17]: 10%

B15: MCH analog SEQ. ID. NO. 27 (Sar^10) (peptide)
peptide: RCMLXRVYRPC
modifications: sarcosine at position 10; N-terminal acetyl, C-terminal amide, Cys-Cys disulfide as in SEQ. ID. NO. 7
notes: as for B3
Activation % [5]: 95% | IC50 [11]: 2.3 nM

B16: truncated MCH analog SEQ. ID. NO. 8: Ac-Arg-Cys-Met-Leu-Gly-Arg-Val-Phe-Arg-Pro-Cys-Tyr-amide (peptide)
peptide: Ac-RCMLGRVFRPCY-NH2
modifications: disulfide 2-11
SMILES: CSCC[C@@H]1NC(=O)[C@@H](NC(=O)[C@H](CCCNC(=N)N)NC(C)=O)CSSC[C@@H](C(=O)N[C@@H](Cc2ccc(O)cc2)C(N)=O)NC(=O)[C@@H]2CCCN2C(=O)[C@H](CCCNC(=N)N)NC(=O)[C@H](Cc2ccccc2)NC(=O)[C@H](C(C)C)NC(=O)[C@H](CCCNC(=N)N)NC(=O)CNC(=O)[C@H](CC(C)C)NC1=O
% Activation at 10 µM [3]: 123% | EC50 [3]: 36 nM | IC50 [9]: 0.16 nM

B17: truncated MCH analog SEQ. ID. NO. 9: Ac-Cys-Met-Leu-Gly-Arg-Val-Tyr-Arg-Pro-Cys-amide (peptide)
peptide: Ac-CMLGRVYRPC-NH2
modifications: disulfide 1-10
SMILES: CSCC[C@@H]1NC(=O)[C@@H](NC(C)=O)CSSC[C@@H](C(N)=O)NC(=O)[C@@H]2CCCN2C(=O)[C@H](CCCNC(=N)N)NC(=O)[C@H](Cc2ccc(O)cc2)NC(=O)[C@H](C(C)C)NC(=O)[C@H](CCCNC(=N)N)NC(=O)CNC(=O)[C@H](CC(C)C)NC1=O
% Activation at 10 µM [3]: 74% | EC50 [3]: 300 nM | IC50 [9]: 1.6 nM

B18: truncated MCH analog SEQ. ID. NO. 10: Asp-Phe-Asp-Met-Ieu-Arg-Cys-Met-Ieu-Gly-Arg-Val-Tyr-Arg-Pro-Cys-amide (peptide)
peptide: DFDMLRCMLGRVYRPC-NH2
modifications: disulfide 7-16; N-terminus assumed
SMILES: CSCC[C@@H]1NC(=O)[C@@H](NC(=O)[C@H](CCCNC(=N)N)NC(=O)[C@H](CC(C)C)NC(=O)[C@H](CCSC)NC(=O)[C@H](CC(=O)O)NC(=O)[C@H](Cc2ccccc2)NC(=O)[C@@H](N)CC(=O)O)CSSC[C@@H](C(N)=O)NC(=O)[C@@H]2CCCN2C(=O)[C@H](CCCNC(=N)N)NC(=O)[C@H](Cc2ccc(O)cc2)NC(=O)[C@H](C(C)C)NC(=O)[C@H](CCCNC(=N)N)NC(=O)CNC(=O)[C@H](CC(C)C)NC1=O
% Activation at 10 µM [3]: 99% | IC50 [9]: 0.3 nM

Source: patent US20030105278A1 (MERK, published 2003)
